Assay: label from the status in PepcDB records

With “MLKIKILIIIFCCIGVVKAQTVIPPSSETPPGWIYYDGDEFNGDVIDSRYWGIYGSPKVGRPTYNQENKAMLQTYRPEQVFIETLPTGEKICRIRSFKSKDAPSPVHPSVKSKTGWWSGALSSRDSDTEKYYPLFCRIEIKAKVPYLYGLWNALWLRHYKGAGVAEIDILEFFTKAFGENPYPAKANQTLHLFNSETQKLGINLPKGQIRYTEIGDDKPGDNFHVYAVQIDPDPVDNNHAIITFLIDNKVNYQIHTRTQLGDAYTDFITKARKEDRLDRVWDIAITGQVGAFDKLDVGYPAEELQQFDFDIDWIRVYVRDPHTRIVGNSKLPHTPEADSFVKDLLSRMTVEEKIGQLSQYVGRTLLTGPESEYLSDSLIARGLVGSVLNISGAKTLRDLQEKNMRHSRIKIPILFGMDVIHGYKTIFPTPLAESCSWDLAAIERAAKIAAIESSAAGLHWTFAPMVDIARDARWGRVVEGAGEDTYLGSEIAKARVNGFQWNLWENNSVLACAKHWVAYGLPQAGRDYAPVDMSERTLFDTYLPPFKACIDAGVLTFMSAFNDINGIPASAHPFLLKDLLRGQWNFNGFVVSDWEAVKQLVAQGVAEDDKDATRLAFNSGIDMDMTDGLYNKYMKELIEAGKISMEDVDNSVSRILHIKYALGLFVDPYKFCNEEYESQTIMKKEFLDAALDMAHKSAVLLKNDNHTLPLAKNVRSIAVVGPLADNQTELLGSWRARGEDRHVTTVLQGIKNKIGGNKTKVGYARGCDFDGEDKSGFKEAVKLASKSDMVIAVVGEKALMSGESRSRAQLDLPGVQEELIKELVATGKPVVVVLMNGRPLSIEWVDKNVSAILETWFLGTSAGTAIADILFGDYNPSGRLTISFPRVEGQVPIYYNYKKSGRPGDMLHSSTTRHIDVPNAPLYPFGYGLSYTTFSYSAPQSTQKEYTRQETISVSVTVTNTGDRDGEETVQLYVNDKVASVVRPVKELKAFKKIFLKAGESKTVQFDISPLALGFYDAAMNYVVEPGEFEIMTGCNSNDLQTISVKLIN” the protein production was “failed”.

In the case of “MLKKGNEMKAVIVYASVHHGNTKKIEEAMASVISADVIDVTRKIKPDLSGYDVIGFVSGVYFHTFHEGIKKCIEENMSSKGQKVFLVATCGLGYRDYTKGMKDTLAKKDVLCMGSFQCRGWDTYGIFGKIGGIAKKHPNDRDLKEAQEFVLKTVCKTNLEHHHHHH”, the protein production is reported as “not failed”.

With “MLKLGVIGTGAISHHFIEAAHTSGEYQLVAIYSRKLETAATFASRYQNIQLFDQLEVFFKSSFDLVYIASPNSLHFAQAKAALSAGKHVILEKPAVSQPQEWFDLIQTAEKNNCFIFEAARNYHEKAFTTIKNFLADKQVLGADFNYAKYSSKMPDLLAGQTPNVFSDRFAGGALMDLGIYPLYAAVRLFGKANDATYHAQQLDNSIDLNGDGILFYPDYQVHIKAGKNITSNLPCEIYTTDGTLTLNTIEHIRSAIFTDHQGNQVQLPIQQAPHTMTEEVAAFAHMIQQPDLNLYQTWLYDAGSVHELLYTMRQTAGIRFEAEK” the protein production was “not failed”.

In the case of “MLKLTPLLLAIAYGFLMYQFSVWRTKRMLDAQSRPLDEPEILALARRMAAALDLPTVKVSVFEVDPVNGLAAPDGRIFLTRGFLKKYRAGEVTAEELASVIAHELGHVALGHSRRRMIDFTGQNAVLMMLGAVLNRFVPFAGIWIARLLTSALSARLSRRDEHEADAYASALLVKAGIGTEPQKSLFRKLHRWSGMNSSAVPAWLMSHPVTDERIRRIEEREARWIEGLEHHHHHH”, the protein production is reported as “failed”.

In the case of “MLKNIDPALNADVLHALRAMGHGDTLVISDTNFPSDSVARQTTVGKVLHIDNVSAARAMKAILSVLPLDTPLQPSVGRMEVMGAPDQLEPVQVEVQQEIDAAEGKSAPMYGIERFAFYEKAKQAYCVITTGETRFYGCFLLTKGVIPPK”, the protein production is reported as “not failed”.

For “MLKNLRIRKFEPEEEYVYFTYSIKNDKREKSKELIREYTTLLQKAIDYLWNLTKIQVRKKNGNYKITLPKKREVYKPLREELEKINHLASHYVDKAINDAFSILKSWRKRAIKGRASIEKPRVKKAYVRIKTTLRKVVGESVRITVRPHEYITFSWSKSWFSRRVRELELGEPIIKEEKVYLPFRYKLPWATPVDFLAIDSNLYTLDAYDGEKFVTISLKQLYSLKYSMEVKRAKVQSFASKHTKRGRELMRKYSHRERNRVLDFVHKFVNTLLDLYPMTFFAVEKLNKESMFKDANDSLSRKISRTVWGSIHRVLKYKAPLYGSFVKEVNPRFTSRSCPRCGFVSRKVGKTFECERCGFKLDRQLNASLNIYLKMCGFPHIREIARVWVGVIPLMGRRGMNGFPRDFGEAQGLRIDIEYHEIPLEHHHHHH”, the protein production was “not failed”.

For “MLKPTHFVVAARVTLVLGGLAVAVLALGPFQGAERIVGLNDKAAHAIAFGGLLAVSFLAFPRMRRNDLAIAALVLGAGVEVAQLFGGRSASLLDWLADAAGVLTIYGASMIETVRKMAREQGDMTFAEIAATDRRRARRRAPAVFTPLVETPQTEHAPPLSFAQRAARRFPVS”, the protein production was “failed”.

With “MLKQPIQAQQLIELLKVHYGIDIHTAQFIQGGADTNAFAYQADSESKSYFIKLKYGYHDEINLSIIRLLHDSGIKEIIFPIHTLEAKLFQQLKHFKIIAYPFIHAPNGFTQNLTGKQWKQLGKVLRQIHETSVPISIQQQLRKEIYSPKWREIVRSFYNQIEFDNSDDKLTAAFKSFFNQNSAAIHRLVDTSEKLSKKIQPDLDKYVLCHSDIHAGNVLVGNEESIYIIDWDEPMLAPKERDLMFIGGGVGNVWNKPHEIQYFYEGYGEINVDKTILSYYRHERIVEDIAVYGQDLLSRNQNNQSRLESFKYFKEMFDPNNVVEIAFATEQ” the protein production was “failed”.

For “MLKRIFTVGGFTLLSRLTGFARDIMLAAILGAGPVADAFFVALRLPNHFRAIFAEGAFNAAFVPAYAHVHGEKGEASAKLFADRIFTLLFLSQLVLLAVALAFMPQMMSILAPGFTDDPEQRALAIELTRITFPYLLLITLVTLYGGILNVMQRFASAAAASIFLNISMMATLALAAFFPSAGHAAAWGVLISGVLQYFLLAGDLSLHGGLPRFARPKLDEDVRAFFRALGPATLGSMGTQLALFADTIIATFLPAGALSALYYADRLNQLPIGVIGIAIGTVLLPEMSRQLTAGDDAGAKASQRRAFEFTLLFSVPFVAAFLTVPDEIMRAMFARGAFTRADAISAGTTLAAYAIALIPFVLIRSAVAPFYARKDTATPVKAALTGVATNVVLKFALMGSLAQVGLALATAAGAWINLLLVIFFSVRAGYLEFDRELVRAILKFGIIGVLLGAALWLTAWLAPPYLALLPALRSEAALALLILVGAVIYGAAILILFGPRWIKRLLRG”, the protein production was “failed”.

With “MLKRKLILIAYTLLGLSSPVFSADYITENLSTYMRKGAGDQYKISGAVQAGEKVTVLDRKDRFVLIRDSRNREGWVLASEISQTASPKDLIPQLQQQVQDLSSKLGKIDADWQQRTLEMQRRSQQAEQQSSQLLDQNAQLKRELDILKNKNRDLETMHDSAKREIVIQWFIYGGSVLAVGLLLGLIIPFILPRRKRHNGWS” the protein production was “failed”.

In the case of “MLKRLWQIFGPVICALVLVVVVIYAYPQGRKYSYEAEKRSAVTLTNENFKSRKNKTTALSDQNHRFVPYFGSSEWLRFDALHPAVLAEKYDRNYRPYFIGQRGSASLNQYLGMQQMLPELQNGTAVYVLSPQWFTKKGYNSAAFQQFFNNDQLSSFLSQNQTDANSQYAAKRILEMKPEITMKSQLSKVAKGQDLNTVDKTYIQFMAELNRREDSLFSPLAASNNANYDKKVLPYLKELPDQFSYDALDQLAVRDAEAHTKSNDFGIDDRFYKERLSKKIGKLKGFQKNLSYEVSQEYGDLQLVLNQFAKSNTNVIFVIPPVNSKWMAYTGLNQDMYDATVSKIRYQLESQGFTNIADFSKDGDQPYFMQDTIHMGWKGWVAFDRVVNSFVSNPTPAPSYKLNDRFYSKDWSGYTGTPSQFKLEHHHHHH”, the protein production is reported as “not failed”.

With “MLKSCPMNPRLDALHPYPFEKLRALLADAGKPTHDLPPINLSIGEPKHAAPACVGQAIAANLAGLSVYPSTKGEPALRQAISQWLSRRYSIPAPDPESEVLPVLGSREALFAFAQTVIDPSAGALVVCPNPFYQIYEGAALLAGATPYYVNADPARDFGCDWARVPDEVWRRTQLVFVCSPGNPAGNVMSLEEWRTLFELSDRHGFVIAADECYSEIYLDEDNPPLGSLQAARRLGRDRYTNLVAFSSLSKRSNVPGMRSGFVAGDAALLARFLLYRTYHGSAMSPVVSAASIAAWSDETHVQENRRQYRAKFEAVLPILQNVLDVRAPQASFYLWAGTPGSDTAFARELYGRTGVTVLPGSLLAREAHNANPGQGRIRIALVAPLDQCVQAAERIAHFARTSI” the protein production was “failed”.

For “MLKSEDADYEKAMKDKVGTGPQEYLKQLSDSLVKNQSAASVEVVSGATHSSDAFINYANQLIQAAQKADTTTISINNLAKMEDGTYKLEEQNYAHGYRVVFSMDVKDGKITKSDYNYVDKDGKLKSDDADYEKNMKAKSGTGPKEYIPALNKSLVEKQDVAAVDTVSGATNSSNQFKIYAAQLQNAAQNGNTDTIKVYNLVEAELEHHHHHH”, the protein production was “failed”.

— a protein production outcome set (Wang et al. 2014)
